In article PMC12618663:

Columns and labels:
[1] = molecular target: TMexC1 adapter prepared alone, C-terminal 6x His tag (Klebsiella pneumoniae); experiment: SEC
[2] = molecular target: TMexC1 adapter, Strep-tagged, from the single plasmid pBAD24::tmexCD1-toprJ1 (Klebsiella pneumoniae); experiment: cryo-EM structure
[3] = molecular target: TMexD1 transporter, C-terminal 6x His tag (pET28::tmexD1) (Klebsiella pneumoniae); experiment: SEC
[4] = molecular target: TMexD1 transporter, tag-free, from the single plasmid pBAD24::tmexCD1-toprJ1 (Klebsiella pneumoniae); experiment: cryo-EM structure
[5] = molecular target: TOprJ1 outer-membrane channel prepared alone, C-terminal 6x His tag (pET28::toprJ1) (Klebsiella pneumoniae); experiment: SEC
[6] = molecular target: TOprJ1 outer-membrane channel prepared alone, C-terminal 6x His tag (pET28::toprJ1) (Klebsiella pneumoniae); experiment: negative-stain electron microscopy
[7] = molecular target: TOprJ1 outer-membrane channel, 6x His-tagged, from the single plasmid pBAD24::tmexCD1-toprJ1 (Klebsiella pneumoniae); experiment: cryo-EM structure

Q: With “TMexC1 adapter prepared alone, C-terminal 6x His tag (natural protein)” as the substance, how does the stoichiometry N [1] read?
A: Its stoichiometry N is 6.

Q: How did the stoichiometry N [2] turn out when “TMexC1 adapter, Strep-tagged, from the single plasmid pBAD24::tmexCD1-toprJ1 (natural protein)” was run?
A: Its stoichiometry N is 6.

Q: How did the stoichiometry N [3] turn out when “TMexD1 transporter, C-terminal 6x His tag (pET28::tmexD1) (natural protein)” was run?
A: The stoichiometry N was 3.

Q: How did the stoichiometry N [4] turn out when “TMexD1 transporter, tag-free, from the single plasmid pBAD24::tmexCD1-toprJ1 (natural protein)” was run?
A: Its stoichiometry N is 3.

Q: What does the source list for “TOprJ1 outer-membrane channel prepared alone, C-terminal 6x His tag (pET28::toprJ1) (natural protein)”?
A: stoichiometry N [5]: 3; stoichiometry N [6]: 3

Q: “TOprJ1 outer-membrane channel, 6x His-tagged, from the single plasmid pBAD24::tmexCD1-toprJ1 (natural protein)” was tested. Which stoichiometry N [7] did it give?
A: Its stoichiometry N is 3.
